Experimental data published in the DeepSol protein solubility set.

Assay: soluble on expression in E. coli; label from the status in PepcDB or PDB records

Sequence | soluble on expression in E. coli
MQLTESLGIVLFNRNYREDDKLVKIFTEVAGKQMFFVKHISRSKMSSIIQPLTIADFIFKLNDTGLSYVVDYSNVNTYRYINNDIFRLAYASYVLALADAAIADNESDSHLFTFLKKTLDLMEEGLDYEILTNIFEIQILDRFGISLNFHECAICHRTDLPLDFSHRFSAVLCSEHYYKDNRRNHLDPNVIYLLSRFQKITFDDLRTISLNKDIKKKLRQFIDELYHDYVGIKLKSKTFIDNLVKWGDIMK | not soluble
MLITVYCVRRDLSEVTFSLQVSPDFELRNFKVLCEAESRVPVEEIQIIHMERLLIEDHCSLGSYGLKDGDIVVLLQKDNVGPRAPGRAPNQPRVDFSGIAVPGTSSSRPQHPGQQQQRTPAAQRSQGLASGEKVAGLQGLGGPALIRSMLLSNPHDLSLLKERNPPLAEALLSGSLETFSQVLMEQQREKALREQERLRLYTADPLDREAQAKIEEEIRQQNIEENMNIAIEEAPESFEQVTMLYINCKVNGHPLKAFVDSGAQMTIMSQACAERCNIMRLVDRRWAGVAKGVGTQRIIGRVHLAQIQIEGDFLQCSFSILEDQPMDMLLGLDMLRRHQCSIDLKKNVLVIGTTGTQTYFLPEGELPLCSRMVSGQDESSDKEITHSVMDSGRKEH | soluble
PLTEAQKNKLRHLSVVTLAAKVKCIPYAVLLEALALRNVRQLEDLVIEAVYADVLRGSLDQRNQRLEVDYSIGRDIQRQDLSAIARTLQEW | not soluble
MDRFENMNAFVRVVETGSISAAADRMDIAKSVVSRRLKELEEHLGVELFHRTTRQMNLTDSGRAFYQQSVRILADVLEAEHATSQFHGRLKGHLKVAVPLSFGLMHLGAAISTFLQTHPDIEFDLDFNDRQVDLLAEGFDLAIRIANLPDSSLIARRLAPIQAVMCASPAYLERMGTPQAPEELIRHRCLVYNLVSHSDNWNVYGTTGELIKTRIIPYLKASNGEFLRDAAVDGLGIVLLPTFIVYREIQRGALIPILTGYHYAQLAAYAIYPQTRHLSQRVRAFVDFLSQRFEGMPYWDACLNQ | not soluble
GPLGSPRNANDNNQFYQQKQRQALGEQLYKKVSAKTSNEEAAGKITGMILDLPPQEVFPLLESDELFEQHYKEASAAYESFKKEQEQQTEQA | soluble
AIAELTGQRLREGDGPDGPADDGAGAQADLEHSLLVAAEKKDEGPYRMEHFRWGSPPKDKRYGGFMTSEKSQTPLVTLFKNAIIKNAYKKGE | soluble
MISKHSSRLPIWVLSPREEQQARKNLKTETYKKCANFVQAMADCAKANGMKVFPTCDKQRDEMKSCLLFYQTDEKYLDGERDKIVLEKINKLEKLCQKQSSTK | not soluble
MKRQWALEDFEIGRPLGKGKFGNVYLAREKQSKFILALKVLFKAQLEKAGVEHQLRREVEIQSHLRHPNILRLYGYFHDATRVYLILEYAPLGTVYRELQKLSKFDEQRTATYITELANALSYCHSKRVIHRDIKPENLLLGSAGELKIADFGWSVHAPSSRRTDLCGTLDYLPPEMIEGRMHDEKVDLWSLGVLCYEFLVGKPPFEANTYQETYKRISRVEFTFPDFVTEGARDLISRLLKHNPSQRPMLREVLEHPWITANSSKPSNCQNKESAAAALEHHHHHH | soluble
MSLETELPQAQDGSVRLLQITDTHLFASAEGRLLAVRTAESLAAVLERVQANDHPFDLILATGDLSQDHSPESYQRFASMMAPLARPIYWLPGNHDDGPLMTEYLHAAGISEAKQLVGEHWQVILLDTQVRGKPHGVLGDHQLAALDQALRQHPERHALIALHHQAVPVGCAWLDQHNLKPTTLFAVLARHPQQKTILFGHVHQEFDETAGMRLIASPSTCIQFKPLSDGLRAGREGHHHHHH | not soluble
MGSDKIHHHHHHMRVASPETFASQSYRLLPFRFERVNDDRFLLINEVGEHCYLNCADLNNLVNGYLTTSGKTFQNLESKSFVYSENNNFALRAFSAKYRARKSFLFDGPALHIFVLTLRCENSCEYCQVTRRSPDAVKYDMPLSIAKQAVLRMFESPAENLTVEFQGGEPLLAYDVLKYIVELCIELNITEQKSLQFVVATSLQNINMEMLEFFHLHNVHISTSVDGPQWLHQLNRPNSCSNSYEKTMHGLEMARGVLGHDRIAGMTTITRSSLTAIKTIIDEYVRLGFHSIFLRPLNMYGFAVKKENKVGYSSEDFNKFYEQALKYIIEINQQGYRLDEVNAALALNNILTPQATGYVDMRSPCGDGTGVLVYNYDGKVYPSDESRMLVEMGDESLALGSVSESYQDLMSSSVLNTILHAGIAEALPGCSDCAYLPYCGANPIQNYSRYGDMIGHRTFSAFCAKQKFLYRYVFNLLQDKSNRTVFNSWLPL | not soluble
SEEDIDTRKINNSFLRDHSYATEADIISTVEFNHTGELLATGDKGGRVVIFQREQESKNQVHRRGEYNVYSTFQSHEPEFDYLKSLEIEEKINKIRWLPQQNAAYFLLSTNDKTVKLWKVSERDKRPEGYNLKDEEGRLRDPATITTLRVPVLRPMDLMVEATPRRVFANAHTYHINSISVNSDYETYMSADDLRINLWNFEITNQSFNIVDIKPANMEELTEVITAAEFHPHHCNTFVYSSSKGTIRLCDMRASALCDRHTKFFEEPEDPSNRSFFSEIISSISDVKFSHSGRYIMTRDYLTVKVWDLNMENRPIETYQVHDYLRSKLCSLYENDCIFDKFECVWNGSDSVIMTGSYNNFFRMFDRNTKRDVTLEASRENSKPRAILKPRKVCVGGKRRKDEISVDSLDFSKKILHTAWHPSENIIAVAATNNLYIFQDKVN | not soluble
MNYIQLQRFNMSKVASIVDVLQGKVAIGETVTVRGWVRTRRDSKAGLSFLAVYDGSCFDPIQAIINNDIENYESEILRLTTGCSVIVTGKVVESPAEGQAVELQAEKVEVTGFVEDPDTYPMAAKRHSIEYLREVAHLRPRTNIIGAVARVRHCLSQAIHRFFHEQGFYWVATPLITASDTEGAGEMFRVSTLDLENLPRSENGKVDFSQDFFGKESFLTVSGQLNGETYACALSKIYTFGPTFRAENSNTTRHLAEFWMVEPEVAFATLADNAKLAEDMLKYVFRAVLAERKDDLQFFEKHVDKDVITRLENFVNSDFAQIDYTDAIDVLLKSGKKFEFPVSWGIDLSSEHERFLAEEYFKSPVVVKNYPKDIKAFYMRLNDDEKTVAAMDVLAPGIGEIIGGSQREERLEVLDKRMEEMGLNPDDYWWYRDLRKYGSVPHSGFGLGFERLIVYVTGVQNIRDVIPFPRAPRNANFLEHHHHHH | soluble
MAHHHHHHMEGFPLGLAVIIDPPREKESGAMVEAHAARDNGSAAGSLSNGETNTADTGGDAYSGHSINNREQVPIALHNVCPTRFLWSRYEENGGMLLHMPRSKVCREHRKGLCRFGNECSFLHVCRQMPIGSGDEELLSHSRTPLRHSTVQGSMQDFSHPPSFATASGSLCHHAHSQSYSQANLQHFQGSTVMSQNGSYMDGSLGNSQTGSRPHLSRAPTASESYGGHQPLLRPLGGVQNSHSSVAARGSFSHNPYAEASSFQS | not soluble
MSKFDTSALEAFVRHIPQNYKGPGGVVAVVKDGEVVLQHAWGFADLRTRTPMTLDTRMPICSVSKQFTCAVLLDAVGEPELLDDALEAYLDKFEDERPAVRDLCNNQSGLRDYWALSVLCGADPEGVFLPAQAQSLLRRLKTTHFEPGSHYSYCNGNFRILADLIEAHTGRTLVDILSERIFAPAGMKRAELISDTALFDECTGYEGDTVRGFLPATNRIQWMGDAGICASLNDMIAWEQFIDATRDDESGLYRRLSGPQTFKDGVAAPYGFGLNLHETGGKRLTGHGGALRGWRCQRWHCADERLSTIAMFNFEGGASEVAFKLMNIALGVSSSEVSRVEADSAWFGSWLDDETGLVLSLEDAGHGRMKARFGTSPEMMDVVSANEARSAVTTIRRDGETIELVRASENLRLSMKRVKGEAKHDIIGRYHSDELDADLLLVSEGGAIYGAFEGFLGKSDMYPLYSVGSDVWLLPVQRSMDAPSPGEWKLVFRRDDKGEITGLSVGCWLARGVEYRRVQP | soluble
MPHTNGKGGGAQKWAGNNKRKRNFDGEQDPSVRKALKEKRLLKKRKQDLKGQEETMLDEVEQKYQEMLKKSSRTFLRFEDFPLSWRTLEGLKDNDYTKPTEIQRDTIAYSLTGSDVVGAAKTGSGKTLALVIPVLEALWRAKWSPDYGLGALIISPTRELALQTFSTINAVGAHHGFSCGLVIGGSDVAFERNRISGINIIVCTPGRLLQHMDENAQMSCDSLQVLVLDEADRMLDMGFSKQLNSIINNLPAERQTLLFSATQTRNVKDLCRVCTNDPVFVSVHENASAATPDNLKQSYVIVEEEHKINALWSFIEAHRKKKSLVFVSSCKQARFLTEAFSQLRPGLPVMGLWGTMNQKKRIETFTKFDESKAAVLIATDVASRGLDFEHIDWVIQVDCPAQIDDYIHRVGRSARMDDSGNSLLMVSPSQEEAMIGKLEKHSIPIEELKIHPDAMSDVRVKLRAILAESQELKEYAQKSIVAYLRSIYTMKDKKVFDVEAIDAAALADSFGLVSVPRVRFLNKKAKKSGEKLMEKEVKEEEEEASLVGKFAIDEDDEDIFTVKKPTGEPEQIKEEEAAEKISNITISKTKPLKKAVTKVSAAKKILNKKLKVNTKKTFGAEDDELEELEEGPSTITSYGLDIEKARQEIKSGDKEDRKRFKLLREQRRQEKLAKKNRRAEEEEAVEYDEDGSEDEPDISWLPDPDAVRRKYEEEPDEVEDLEQQALAALGRK | not soluble
MVDNKVTQSNKLIESSHTLTLNEKRLVLCAASLIDSRKPLPKDGYLTIRADTFAEVFGIDVKHAYAALDDAATKLFNRDIRRYVKGKVVERMRWVFHVKYREGQGCVELGFSPTIIPHLTMLHKEFTSYQLK | soluble
SMDTNADIYDQTASTFFPNGEAMWKKMVEDLKKAEKFIFLEYYIIEEGLMWNRILDILEQKVAQGVEVKMLYDDIGCMATLTGDYAHRLRQLGIEAHKFNKVIPRLTVAYNNRDHRKILIVDGQIAYTGGVNLADEYINHVERFGYWKDSGIRLDGLAVKALTRLFLTTWYINRGEISDFDQYH | not soluble
MNGIKTGLGITPGEHIISADSALSRNIRQCFCLSCHGRLILQTDAQGAWFEHDLHALSEQQKADCVVLNPEKSHPYIEDMAMFLSPLPVVLEWHCVMCEQFFHGKKFCEACGTGIYCRAVCTKSVYSYQPDLFEDCGGAST | not soluble
VGDYGPFGFDPDEFDRVIREGSEGLRDAFERIGRFLSSSGAGTGWSAIFEDLSRRSRPAPETAGEAGDGVWAIYTVDADGGARVEQVYATELDALRANKDNTDPKRKVRFLPYGIAVSVLDDPVDEAQ | soluble
MAHHHHHHMANDDPKEPQPAVLNPEVDQQDTSVNGDDGDAERDGGKDVPVFTPAGARVEVHPLVLLSLVDHYARVNAKVSQKRRVAGLLLGRHLSHPGGIQVLDINNSFAVPFDEDPQNPDVWFLDTNYAEEMFLMFRRVHPKVRIVGWYSAGPSCAVQPNDMLLHLLIADRFSLNPVYCIVNTDPNNKGVPVLAYTTVHGRDGARSLEFRNIPTHLGAEEAEEIGIEHLLRDLTDSTITTLSAQVQERELSLDHLGRVLQSIEEYLNDVAEGTMPISEDVLSVLQEVISLQPHIYHLKTSTDMVRHANDQAIAMFIAAIGRCVCTLYDVIANRRRIAREIQEVRARRERSLKEKLGNEQHKAKEAATEESRKEGAAKN | not soluble
